This is an account of results in patent US20220064329A1 (Novo Nordisk, published 2022).

Substitutions are numbered along the chain they refer to.

Holding throughout (assay): SPR, ratio of KD to KD of WT
In general terms: Surface plasmon resonance follows binding to a sensor surface in real time, without labels.

In one experiment the target is T1, FVII(a) variant V252A (human, UniProt P08709 61-466).
T1 construct: hFVII alanine variant in cell culture supernatant
T1 sequence: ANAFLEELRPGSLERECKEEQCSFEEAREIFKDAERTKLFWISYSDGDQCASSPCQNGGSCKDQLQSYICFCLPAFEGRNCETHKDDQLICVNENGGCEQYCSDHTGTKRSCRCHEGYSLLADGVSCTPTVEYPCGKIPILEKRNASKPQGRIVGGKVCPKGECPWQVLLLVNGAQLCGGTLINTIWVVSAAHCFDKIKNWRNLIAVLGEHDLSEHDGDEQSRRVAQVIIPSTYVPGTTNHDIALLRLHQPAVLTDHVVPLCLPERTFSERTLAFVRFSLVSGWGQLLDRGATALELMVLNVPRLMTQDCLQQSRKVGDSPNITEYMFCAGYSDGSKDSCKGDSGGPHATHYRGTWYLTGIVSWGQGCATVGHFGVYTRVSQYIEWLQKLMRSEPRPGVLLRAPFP
The protocol:
(§1) The running buffer was prepared by diluting 10-fold the 10×HBS-P buffer (supplied by GE Healthcare) and supplemented with 1 mg/ml BSA and 5 mM CaCl2 to give 10 mM HEPES, 150 mM NaCl, 0.05% v/v Polysorbate 20, pH 7.4, 5 mM CaCl2, 1 mg/ml bovine serum albumin (BSA). […] Regeneration of the chip was achieved using 10 mM HEPES, 150 mM NaCl, 20 mM EDTA, 0.05 v/v Polysorbate 20, pH 7.4. Binding data were analysed according to a 1:1 Kinetic model and steady state analysis using BiaEvaluation 4.1 supplied by the manufacturer (Biacore AB, Uppsala, Sweden). Wherever possible, ka, kd and KD values from 1:1 kinetic fitting model are reported. […] An amino acid residue is considered a hot-spot residue if substitution of that amino acid residue with alanine results in an affinity reduction of ten (10) fold or more relative to the wild type.

Another experiment deals with T2, FVII(a) variant E265A (human, UniProt P08709 61-466).
T2 construct: hFVII alanine variant in cell culture supernatant
T2 sequence: T1 sequence with A252V, E265A
The protocol: as §1

In the next experiment the target is T3, FVII(a) variant R392A (human, UniProt P08709 61-466).
T3 construct: hFVII alanine variant in cell culture supernatant
T3 sequence: T1 sequence with A252V, R392A
As for the experimental part:
as §1

The target in another experiment is T4, FVII(a) variant E394A (human, UniProt P08709 61-466).
T4 construct: hFVII alanine variant in cell culture supernatant
T4 sequence: T1 sequence with A252V, E394A
The protocol: as §1

The next experiment has as its target T5, FVII(a) variant R113A (human, UniProt P08709 61-466).
T5 construct: hFVII alanine variant in cell culture supernatant
T5 sequence: T1 sequence with R113A, A252V
The protocol: as §1

B1: mAb0842(OA) (antibody, human IgG4 S228P, kappa)
heavy: QVQLQESGPGLVKPSQTLSLTCTVSGYSISSDSAWSWIRQPPGKGLEWIGYIQYSGSTNYNPSLKSRVTISRDTSKNQFSLKLSSVTAADTAVYYCARSVNYYGNSFAVGYWGQGTLVTVSSASTKGPSVFPLAPCSRSTSESTAALGCLVKDYFPEPVTVSWNSGALTSGVHTFPAVLQSSGLYSLSSVVTVPSSSLGTKTYTCNVDHKPSNTKVDKRVESKYGPPCPPCPAPEFLGGPSVFLFPPKPKDTLMISRTPEVTCVVVDVSQEDPEVQFNWYVDGVEVHNAKTKPREEQFNSTYRVVSVLTVLHQDWLNGKEYKCKVSNKGLPSSIEKTISKAKGQPREPQVYTLPPSQEEMTKNQVSLSCAVKGFYPSDIAVEWESNGQPENNYKTTPPVLDSDGSFFLVSRLTVDKSRWQEGNVFSCSVMHEALHNHYTQKSLSLSLGK
light: EIVLTQSPATLSLSPGERATLSCRASQGISDYLHWYQQKPGEAPRLLIKYTSQPATGIPARFSGSGSGTDFTLTISSLEPEDFAVYYCQNGHSFPLTFGQGTKLEIKRTVAAPSVFIFPPSDEQLKSGTASVVCLLNNFYPREAKVQWKVDNALQSGNSQESVTEQDSKDSTYSLSSTLTLSKADYEKHKVYACEVTHQGLSSPVTKSFNRGEC
chain: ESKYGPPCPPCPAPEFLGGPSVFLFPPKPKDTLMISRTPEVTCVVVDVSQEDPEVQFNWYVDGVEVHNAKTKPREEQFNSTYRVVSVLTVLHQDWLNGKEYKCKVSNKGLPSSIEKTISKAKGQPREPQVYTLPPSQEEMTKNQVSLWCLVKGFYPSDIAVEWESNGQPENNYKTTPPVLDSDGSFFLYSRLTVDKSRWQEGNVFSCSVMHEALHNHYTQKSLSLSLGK
notes: also called monovalent humanized 11F2 antibody; one-armed anti-FVII(a) antibody
In the case of B1, the “Fold diff (Variant/WT)” value with FVII(a) variant V252A worked out at 0.9 fold; with FVII(a) variant E265A, 3.2 fold; with FVII(a) variant R392A it was 142 fold; with FVII(a) variant E394A, 2.6 fold; with FVII(a) variant R113A it was 1 fold.
